“Also recorded” adds a separate entry of the source.
Assays:
canine IL-31 = test: Affinity of anti-IL-31 antibodies by surface plasmon resonance (Biacore), canine IL-31 surface; assay type: binding; details: IL-31 conjugated to the surface (FIG. 2)
Procedure: (§1) The affinity with which candidate mAbs bind canine and feline IL-31 was determined using surface plasmon resonance (SPR) on a Biacore system (Biocore Life Sciences (GE Healthcare), Uppsala, Sweden). To avoid affinity differences associated with differential surface preparation that can occur when immobilizing antibodies to surfaces; a strategy was employed where IL-31 was directly conjugated to the surface. Immobilization was obtained by amine coupling 5 μg/mL IL-31 using N-hydroxysuccinimide (NHS)/1-Ethyl-3-(3-dimethylaminopropyl) carbodiimide (EDC) chemistry. Chips were quenched with ethanolamine and the affinity with which all candidate mAbs bound to the immobilized IL-31 was evaluated. All curves were fit to a 1:1 model. Affinity constants (KD) less than 1×10^−11M (1E-11 M) are below the lower limit of quantitation of detection for the instrument. Results for affinity measurements are described herein.

feline IL-31 = test: Affinity of anti-IL-31 antibodies by surface plasmon resonance (Biacore), feline IL-31 surface; assay type: binding; details: IL-31 conjugated to the surface (FIG. 2)
feline IL-31, sequence (as listed by the source): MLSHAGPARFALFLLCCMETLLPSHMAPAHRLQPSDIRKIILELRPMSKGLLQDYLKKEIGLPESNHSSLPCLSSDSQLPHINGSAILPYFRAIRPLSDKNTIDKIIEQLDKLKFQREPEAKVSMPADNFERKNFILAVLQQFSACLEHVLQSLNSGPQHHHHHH
Procedure: as §1

canine IL-31, sequence (as listed by the source): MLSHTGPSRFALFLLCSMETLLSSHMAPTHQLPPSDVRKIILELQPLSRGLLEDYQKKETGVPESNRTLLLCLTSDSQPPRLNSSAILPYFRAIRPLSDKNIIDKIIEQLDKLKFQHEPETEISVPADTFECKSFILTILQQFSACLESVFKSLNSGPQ

| Molecule | affinity (KD) to canine IL-31 (canine IL-31) | affinity (KD) to feline IL-31 (feline IL-31) |
| --- | --- | --- |
| Feline 15H05 1.1: felinized 15H05, FEL_15H05_VH1 with FEL_15H05_VL1 (antibody, V domains shown) VH: QVLLVQSGAEVRTPGASVKIFCKASGYSFTSYTIHWLRQAPAQGLEWMGNINPTSGYTENNQRFKDRLTLTADTSTNTAYMELSSLRSADTAMYYCARWGFKYDGEWSFDVWGAGTTVTVSS VL: EIQMTQSPSSLSASPGDRVTITCRASQGISIWLSWYQQKPGKVPKLLIYKASNLHIGVPSRFSGSGSGTDFTLTISSLEPEDAATYYCLQSQTYPLTFGGGTKLEIK | neutral to positive impact on affinity | – |
| Feline 15H05 2.2: felinized 15H05, FEL_15H05_VH2 with FEL_15H05_VL2 (antibody, V domains shown) VH: QVLLVQSGAEVRTPGASVKIFCKASGYGFTSYTIHWVRQSPAQGLEWMGNINPTSGYTENNQRFKDRLTLTADTSTNTAYMELSSLRSADTAMYYCARWGFKYDGEWSFDVWGAGTTVTVSS VL: EITMTQSPGSLAGSPGQQVTMNCRASQGISIWLSWYQQKPGQHPKLLIYKASNLHIGVPDRFSGSGSGTDFTLTISNLQAEDVASYYCLQSQTYPLTFGGGTKLEIK | neutral to positive impact on affinity | – |
| Feline 15H05 1.1 FW1_3: FEL_15H05_VH1 with FEL_15H05_VL1_FW1_FW3 (antibody, V domains shown) VH: QVLLVQSGAEVRTPGASVKIFCKASGYSFTSYTIHWLRQAPAQGLEWMGNINPTSGYTENNQRFKDRLTLTADTSTNTAYMELSSLRSADTAMYYCARWGFKYDGEWSFDVWGAGTTVTVSS VL: DIQMNQSPSSLSASLGDTITVTCRASQGISIWLSWYQQKPGKVPKLLIYKASNLHIGVPPRFSGSGSGTHFTLTITSLQPEDIATYYCLQSQTYPLTFGGGTKLEIK | good affinity | good affinity |
| Feline 15H05 1.1 FW1: FEL_15H05_VH1 with FEL_15H05_VL1_FW1 (antibody, V domains shown) VH: QVLLVQSGAEVRTPGASVKIFCKASGYSFTSYTIHWLRQAPAQGLEWMGNINPTSGYTENNQRFKDRLTLTADTSTNTAYMELSSLRSADTAMYYCARWGFKYDGEWSFDVWGAGTTVTVSS VL: DIQMNQSPSSLSASLGDTITVTCRASQGISIWLSWYQQKPGKVPKLLIYKASNLHIGVPSRFSGSGSGTDFTLTISSLEPEDAATYYCLQSQTYPLTFGGGTKLEIK | detrimental to the affinity | detrimental to the affinity |
| Feline 15H05 1.1_FW1_2: FEL_15H05_VH1 with FEL_15H05_VL1_FW1_FW2 (antibody, V domains shown) VH: QVLLVQSGAEVRTPGASVKIFCKASGYSFTSYTIHWLRQAPAQGLEWMGNINPTSGYTENNQRFKDRLTLTADTSTNTAYMELSSLRSADTAMYYCARWGFKYDGEWSFDVWGAGTTVTVSS VL: DIQMNQSPSSLSASLGDTITVTCRASQGISIWLSWYQQKPGNIPKVLINKASNLHIGVPSRFSGSGSGTDFTLTISSLEPEDAATYYCLQSQTYPLTFGGGTKLEIK | good affinity | good affinity |
| Feline 15H05_VH3 mouse VL: heterochimeric antibody, FEL_15H05_VH3 with MU_15H05_VL (antibody, V domains shown) VH: QVLLVQSGAEVRKPGASVKIFCKASGYSFTSYTIHWLRQAPEQGLEWMGNINPTSGYTENNQRFKDRLTLTADTSTNTAYMELSSLRSADTAMYYCARWGFKYDGEWSFDVWGAGTTVTVSS VL: DIQMNQSPSSLSASLGDTITVTCRASQGISIWLSWYQQKPGNIPKVLINKASNLHIGVPPRFSGSGSGTHFTLTITSLQPEDIATYYCLQSQTYPLTFGGGTKLEIN | improved affinity | restored the affinity to feline IL-31 to equivalent or better than the mouse and chimeric forms |
| Feline 15H05_VH1 mouse VL: heterochimeric antibody, FEL_15H05_VH1 with MU_15H05_VL (antibody, V domains shown) VH: QVLLVQSGAEVRTPGASVKIFCKASGYSFTSYTIHWLRQAPAQGLEWMGNINPTSGYTENNQRFKDRLTLTADTSTNTAYMELSSLRSADTAMYYCARWGFKYDGEWSFDVWGAGTTVTVSS VL: DIQMNQSPSSLSASLGDTITVTCRASQGISIWLSWYQQKPGNIPKVLINKASNLHIGVPPRFSGSGSGTHFTLTITSLQPEDIATYYCLQSQTYPLTFGGGTKLEIN | improved affinity | restored the affinity to feline IL-31 to equivalent or better than the mouse and chimeric forms |
| Feline 15H05 3.2: felinized 15H05, FEL_15H05_VH3 with FEL_15H05_VL2 (antibody, V domains shown) VH: QVLLVQSGAEVRKPGASVKIFCKASGYSFTSYTIHWLRQAPEQGLEWMGNINPTSGYTENNQRFKDRLTLTADTSTNTAYMELSSLRSADTAMYYCARWGFKYDGEWSFDVWGAGTTVTVSS VL: EITMTQSPGSLAGSPGQQVTMNCRASQGISIWLSWYQQKPGQHPKLLIYKASNLHIGVPDRFSGSGSGTDFTLTISNLQAEDVASYYCLQSQTYPLTFGGGTKLEIK | neutral to positive impact on affinity | – |
| Feline 15H05 1.1 FW3: FEL_15H05_VH1 with FEL_15H05_VL1_FW3 (antibody, V domains shown) VH: QVLLVQSGAEVRTPGASVKIFCKASGYSFTSYTIHWLRQAPAQGLEWMGNINPTSGYTENNQRFKDRLTLTADTSTNTAYMELSSLRSADTAMYYCARWGFKYDGEWSFDVWGAGTTVTVSS VL: EIQMTQSPSSLSASPGDRVTITCRASQGISIWLSWYQQKPGKVPKLLIYKASNLHIGVPPRFSGSGSGTHFTLTITSLQPEDIATYYCLQSQTYPLTFGGGTKLEIK | excellent affinity | excellent affinity |
| Feline 15H05 1.1 FW2: FEL_15H05_VH1 with FEL_15H05_VL1_FW2 (antibody, V domains shown) VH: QVLLVQSGAEVRTPGASVKIFCKASGYSFTSYTIHWLRQAPAQGLEWMGNINPTSGYTENNQRFKDRLTLTADTSTNTAYMELSSLRSADTAMYYCARWGFKYDGEWSFDVWGAGTTVTVSS VL: EIQMTQSPSSLSASPGDRVTITCRASQGISIWLSWYQQKPGNIPKVLINKASNLHIGVPSRFSGSGSGTDFTLTISSLEPEDAATYYCLQSQTYPLTFGGGTKLEIK | excellent affinity; also recorded: increased affinity | excellent affinity; also recorded: increased affinity |

Reference: patent US11433139B2, “Peptide vaccines against interleukin-31” (Zoetis Services LLC, priority 2018, dated 2022)
